Reference: PMC10397247
Blank lines part the entries; values can stand above or below the binder they belong to.

Experiments:
[1] = target: T1, 4H4038-bA; experiment: two-hybrid library CCNG1;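 note: natural log of median RNA to DNA barcode read ratio; higher means stronger binding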
T1 chain: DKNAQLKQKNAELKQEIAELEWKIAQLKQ

[2] = target: T2, 4H2134-bA; experiment: two-hybrid library CCNG1;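 note: natural log of median RNA to DNA barcode read ratio; higher means stronger binding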
T2 chain: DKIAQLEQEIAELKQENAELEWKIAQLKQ

[3] = target: T3, 4H3907-bA; experiment: two-hybrid library CCNG1;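 note: natural log of median RNA to DNA barcode read ratio; higher means stronger binding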
T3 chain: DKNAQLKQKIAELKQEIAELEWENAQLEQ

[4] = target: T4, 4H3601-bA; experiment: two-hybrid library CCNG1;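 note: natural log of median RNA to DNA barcode read ratio; higher means stronger binding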
T4 chain: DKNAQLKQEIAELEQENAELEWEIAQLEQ

[5] = target: T5, 4H1406-bA; experiment: two-hybrid library CCNG1;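 note: natural log of median RNA to DNA barcode read ratio; higher means stronger binding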
T5 chain: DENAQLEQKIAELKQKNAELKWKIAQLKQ

[6] = target: T6, 4H3592-bA; experiment: two-hybrid library CCNG1;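 note: natural log of median RNA to DNA barcode read ratio; higher means stronger binding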
T6 chain: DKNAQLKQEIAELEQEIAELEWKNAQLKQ

[7] = target: T7, 4H452-AA; experiment: two-hybrid library CCmax; conditions: mean of both orientations
T7 chain: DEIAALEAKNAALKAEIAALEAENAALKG

[8] = target: GCN2_T; experiment: two-hybrid library CCmax
[9] = target: T8, 4H406-AA; experiment: two-hybrid library CCmax; conditions: mean of both orientations
T8 chain: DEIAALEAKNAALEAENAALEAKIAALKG

[10] = target: T9, 4H175-AA; experiment: two-hybrid library CCmax
T9 chain: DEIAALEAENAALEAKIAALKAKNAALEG

[11] = target: 4H_GCN4; experiment: two-hybrid library CCmax
[12] = target: T10, 4H1765-AA; experiment: two-hybrid library CCmax; conditions: mean of both orientations
T10 chain: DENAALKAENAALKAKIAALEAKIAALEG

[13] = target: T11, 4H2732-AA; experiment: two-hybrid library CCmax; conditions: mean of both orientations
T11 chain: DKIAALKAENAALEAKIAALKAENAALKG

[14] = target: T12, 4H2165-AA; experiment: two-hybrid library CCmax; conditions: mean of both orientations
T12 chain: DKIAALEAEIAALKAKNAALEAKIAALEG

[15] = target: T13, 4H1828-AA; experiment: two-hybrid library CCmax; conditions: mean of both orientations
T13 chain: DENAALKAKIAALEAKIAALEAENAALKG

[16] = target: T14, 4H1821-AA; experiment: two-hybrid library CCmax; conditions: mean of both orientations
T14 chain: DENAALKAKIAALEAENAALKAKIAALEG

[17] = target: T15, 4H2330-AA; experiment: two-hybrid library CCmax; conditions: mean of both orientations
T15 chain: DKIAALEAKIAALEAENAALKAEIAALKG

[18] = target: T16, 4H249-AA; experiment: two-hybrid library CCmax; conditions: mean of both orientations
T16 chain: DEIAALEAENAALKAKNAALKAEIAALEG

[19] = target: T17, 4H3001-AA; experiment: two-hybrid library CCmax; conditions: mean of both orientations
T17 chain: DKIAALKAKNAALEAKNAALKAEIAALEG

[20] = target: T18, 4H3015-AA; experiment: two-hybrid library CCmax; conditions: mean of both orientations
T18 chain: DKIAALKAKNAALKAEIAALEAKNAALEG

[21] = target: T19, 4H3073-AA; experiment: two-hybrid library CCmax
T19 chain: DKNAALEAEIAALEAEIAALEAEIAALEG

[22] = target: T20, 4H2774-AA; experiment: two-hybrid library CCmax; conditions: mean of both orientations
T20 chain: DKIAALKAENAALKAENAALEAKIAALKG

[23] = target: T21, 4H1930-AA; experiment: two-hybrid library CCmax; conditions: mean of both orientations
T21 chain: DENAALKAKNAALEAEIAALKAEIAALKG

[24] = target: T22, 4H_BCR; experiment: two-hybrid library CCmax; conditions: mean of both orientations
T22 chain: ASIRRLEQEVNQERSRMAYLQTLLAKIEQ

[25] = target: T23, 4H2592-AA; experiment: two-hybrid library CCmax; conditions: mean of both orientations
T23 chain: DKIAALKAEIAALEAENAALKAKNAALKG

[26] = target: T24, 4H347-AA; experiment: two-hybrid library CCmax
T24 chain: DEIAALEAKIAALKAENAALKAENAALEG

[27] = target: T25, 4H56-AA; experiment: two-hybrid library CCmax; conditions: mean of both orientations
T25 chain: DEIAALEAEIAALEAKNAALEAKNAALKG

[28] = target: T26, 4H2466-AA; experiment: two-hybrid library CCmax; conditions: mean of both orientations
T26 chain: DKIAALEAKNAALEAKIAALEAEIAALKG

[29] = target: T27, 4H2343-AA; experiment: two-hybrid library CCmax; conditions: mean of both orientations
T27 chain: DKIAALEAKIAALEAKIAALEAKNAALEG

[30] = target: T28, 4H2931-AA; experiment: two-hybrid library CCmax; conditions: mean of both orientations
T28 chain: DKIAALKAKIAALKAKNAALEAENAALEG

[31] = target: T29, 4H3438-AA; experiment: two-hybrid library CCmax; conditions: mean of both orientations
T29 chain: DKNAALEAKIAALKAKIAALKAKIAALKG

[32] = target: T30, 4H2253-AA; experiment: two-hybrid library CCmax; conditions: mean of both orientations
T30 chain: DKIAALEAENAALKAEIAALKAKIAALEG

[33] = target: T31, 4H2124-AA; experiment: two-hybrid library CCmax; conditions: mean of both orientations
T31 chain: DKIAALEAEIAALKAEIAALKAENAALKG

[34] = target: T32, 4H_APH; experiment: two-hybrid library CCmax
T32 chain: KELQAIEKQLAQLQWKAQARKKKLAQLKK

[35] = target: T33, O2-bH; experiment: two-hybrid library CCNG1
T33 chain: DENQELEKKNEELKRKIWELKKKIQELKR

[36] = target: T34, O5-bH; experiment: two-hybrid library CCNG1
T34 chain: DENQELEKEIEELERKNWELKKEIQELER

[37] = target: T35, O9-bH; experiment: two-hybrid library CCNG1
T35 chain: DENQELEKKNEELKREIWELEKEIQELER

[38] = target: T36, O11-bH; experiment: two-hybrid library CCNG1
T36 chain: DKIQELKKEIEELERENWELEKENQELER

[39] = target: T37, O12-bH; experiment: two-hybrid library CCNG1
T37 chain: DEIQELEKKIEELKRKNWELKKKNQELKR

[40] = target: T38, O3-bH; experiment: two-hybrid library CCNG1
T38 chain: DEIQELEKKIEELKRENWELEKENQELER

[41] = target: T39, O13-bH; experiment: two-hybrid library CCNG1
T39 chain: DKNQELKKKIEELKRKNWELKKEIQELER

[42] = target: T40, O4-bH; experiment: two-hybrid library CCNG1
T40 chain: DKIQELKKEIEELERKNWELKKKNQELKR

[43] = target: T41, O16-bH; experiment: two-hybrid library CCNG1
T41 chain: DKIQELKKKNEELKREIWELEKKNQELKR

[44] = target: T42, O7-bH; experiment: two-hybrid library CCNG1
T42 chain: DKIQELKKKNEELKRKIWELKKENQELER

[45] = target: T43, O8-bH; experiment: two-hybrid library CCNG1
T43 chain: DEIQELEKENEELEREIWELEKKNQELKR

[46] = target: T44, O15-bH; experiment: two-hybrid library CCNG1
T44 chain: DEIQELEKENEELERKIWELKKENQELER

[47] = target: T45, O6-bH; experiment: two-hybrid library CCNG1
T45 chain: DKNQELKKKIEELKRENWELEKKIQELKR

[48] = target: T46, O14-bH; experiment: two-hybrid library CCNG1
T46 chain: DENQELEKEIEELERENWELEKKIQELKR

4H_GCN4, sequence (chain, as listed by the source): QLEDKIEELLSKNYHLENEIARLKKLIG

interaction score [1]: -0.125 | interaction score [2]: 1.62 | interaction score [3]: 0.571 | interaction score [4]: 1.83 | interaction score [5]: -0.836 | interaction score [6]: 0.233
Binder: DENAQLEQKIAELKQKNAELKWKIAQLKQ [4H1406-bA]

interaction score [7]: 0.385 | interaction score [8]: -0.991 | interaction score [9]: -1.39 | interaction score [10]: -0.721 | interaction score [11]: -1 | interaction score [12]: -1.18 | interaction score [13]: -0.776 | interaction score [14]: -1.43 | interaction score [15]: -1.69 | interaction score [16]: -1.36 | interaction score [17]: -1.68 | interaction score [18]: 0.000294 | interaction score [19]: -0.307 | interaction score [20]: 2.21 | interaction score [21]: -2.69 | interaction score [22]: -0.332 | interaction score [23]: -1.75 | interaction score [24]: -2.06 | interaction score [25]: -1.32 | interaction score [26]: -1.44 | interaction score [27]: -1.56 | interaction score [28]: -1.58 | interaction score [29]: -1.82 | interaction score [30]: -1.11 | interaction score [31]: -0.317 | interaction score [32]: -0.981 | interaction score [33]: -1.39 | interaction score [34]: -0.714
Binder: DEIAALEAENAALEAKIAALKAKNAALEG [4H175-AA]

interaction score [35]: -1.24 | interaction score [36]: -3.76 | interaction score [37]: -1.15 | interaction score [38]: -0.129 | interaction score [39]: 1.01 | interaction score [40]: 0.233 | interaction score [41]: -0.515 | interaction score [42]: 1.29 | interaction score [43]: -0.352 | interaction score [44]: 0.102 | interaction score [45]: -0.273 | interaction score [46]: -0.515 | interaction score [47]: -0.451 | interaction score [48]: -0.342
Binder: DKIQELKKEIEELERENWELEKENQELER [O11-bH]
